Experimental data from article PMC5697884, “In vitro characterization of the antivirulence target of Gram-positive pathogens, peptidoglycan O-acetyltransferase A (OatA)” (PLoS Pathogens, 2017).

Tested on: CC(=O)Oc1ccc([N+](=O)[O-])cc1
Experiment: purified protein
Settings: hydrolysis (esterase) without acceptor, 50 mM sodium phosphate pH 6.5, 5% (v/v) ethanol, 25 °C

In the case of “SaOatAC (Staphylococcus aureus subsp. aureus NCTC 8325)”, the Km is reported as 1150 ± 70 µM and the kcat is reported as 0.060 ± 0.00078 s⁻¹.

In the case of SpOatAC (Streptococcus pneumoniae R6), the Km is reported as 56 ± 6.5 µM and the kcat is reported as 0.016 ± 0.00039 s⁻¹.
